Measurements: PMC10883266, “TTLL12 is required for primary ciliary axoneme formation in polarized epithelial cells” (EMBO Reports, 2023)

Key:
[1] = molecular target: recombinant 6His-TTLL12 (human) (UniProt Q14166); assay: pull-down; 10 μg (0.18 μM) untagged porcine brain tubulin alone or with 10 μg 6His-TTLL12 in 20 mM HEPES pH 7.4, 150 mM KCl, overnight at 4 °C to prevent polymerization; Ni beads; washes with 300 mM KCl, 0.1% Triton X-100; Coomassie blue staining
recombinant GST-Rab19 = molecular target: T1, recombinant GST-Rab19 (UniProt A4D1S5 1-217); assay: pull-down; 10 μg GST-Rab19 loaded with GDP or GMP-PNP + 10 μg 6His-TTLL12 in 20 mM HEPES pH 7.4, 150 mM NaCl, 1% BSA, 1 h room temperature; glutathione beads; washes with 300 mM NaCl, 0.1% Triton X-100; Coomassie blue staining; details: both partners purified
T1 construct: small GTPase Rab19; loaded with GDP or GMP-PNP before the assay; Loaded with GDP or with GMP-PNP (non-hydrolyzable GTP analog); also called GST-Rab19 (GDP); GST-Rab19 (GMP-PNP); source: E. coli BL21 Codon Plus, purified as previously described (Jewett et al, 2021); not shown: GST, N-terminal, kept
T1 sequence (looked up): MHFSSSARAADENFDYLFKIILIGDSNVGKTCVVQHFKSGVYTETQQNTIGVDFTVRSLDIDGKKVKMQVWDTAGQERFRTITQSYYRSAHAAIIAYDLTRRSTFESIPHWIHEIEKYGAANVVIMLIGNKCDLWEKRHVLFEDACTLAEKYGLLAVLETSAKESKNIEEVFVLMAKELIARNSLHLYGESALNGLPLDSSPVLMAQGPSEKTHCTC

## untagged purified porcine brain tubulin (α/β-tubulin heterodimer) (from UniProt P02554 1-445) (complex)
[1]
  fold increase in tubulin co-precipitation with Ni beads over tubulin alone: 3 fold

B1: recombinant 6His-TTLL12 (natural protein, human, UniProt Q14166 1-644, looked up)
chain: MEAERGPERRPAERSSPGQTPEEGAQALAEFAALHGPALRASGVPERYWGRLLHKLEHEVFDAGEVFGIMQVEEVEEEEDEAAREVRKQQPNPGNELCYKVIVTRESGLQAAHPNSIFLIDHAWTCRVEHARQQLQQVPGLLHRMANLMGIEFHGELPSTEAVALVLEEMWKFNQTYQLAHGTAEEKMPVWYIMDEFGSRIQHADVPSFATAPFFYMPQQVAYTLLWPLRDLDTGEEVTRDFAYGETDPLIRKCMLLPWAPTDMLDLSSCTPEPPAEHYQAILEENKEKLPLDINPVVHPHGHIFKVYTDVQQVASSLTHPRFTLTQSEADADILFNFSHFKDYRKLSQERPGVLLNQFPCENLLTVKDCLASIARRAGGPEGPPWLPRTFNLRTELPQFVSYFQQRERWGEDNHWICKPWNLARSLDTHVTKSLHSIIRHRESTPKVVSKYIESPVLFLREDVGKVKFDIRYIVLLRSVRPLRLFVYDVFWLRFSNRAFALNDLDDYEKHFTVMNYDPDVVLKQVHCEEFIPEFEKQYPEFPWTDVQAEIFRAFTELFQVACAKPPPLGLCDYPSSRAMYAVDLMLKWDNGPDGRRVMQPQILEVNFNPDCERACRYHPTFFNDVFSTLFLDQPGGCHVTCLV
notes: Tubulin Tyrosine Ligase-Like 12 (TTLL12), human cDNA (pLVX304-hTTLL12); the form rests on the printed cloning primers; also called Tubulin Tyrosine Ligase-Like 12; source: Sf9 cells (baculovirus, pFastBac HTA), purified (nickel beads, dialysed into PBS with 1 mM DTT); not shown: 6His, …
Recombinant GST-Rab19
  fold increase in TTLL12 binding over a GST-only control: ~5 fold
